Patent US20100260668A1 (published 2010)
“And” between values parts separate entries of the source, which are not always exact repeats. Equal entries are not always repeated. Values belong to the binder of their own block, whether it stands above or below them.

Legend:
[1] = molecular target: T1, DLL4 (DLL4 ECD/His tag, R&D Systems 1506-D4-050) (UniProt Q9NR61 27-529); experiment: Direct bind ELISA on DLL4; DLL4 domain C-term., HC short, LC long
T1 construct: extracellular domain; not shown: His tag

ErbB3 on A431 cells [2] = molecular target: T2, ErbB3 on A431 cells (human, UniProt P21860 20-1342); experiment: cell-based or functional assay
ErbB3 on A431 cells [3] = molecular target: T2, ErbB3 on A431 cells; experiment: cell-based or functional assay; remark: listed apart in the source
[4] = molecular target: T1, DLL4 (DLL4 ECD/His tag, R&D Systems …); experiment: Direct bind ELISA on DLL4; DLL4 domain N-term., HC short, LC long
IGF-I = molecular target: T3, IGF-I (UniProt P05019 49-118); experiment: Biacore SPR
T3 construct: Bought reagent; also called IGF1

IGF-2 = molecular target: T4, IGF-2 (UniProt P01344 25-91); experiment: Biacore SPR
T4 construct: Bought reagent

IGF1R ECD = molecular target: T5, IGF1R ECD (UniProt P08069 31-935, limits assumed); experiment: Biacore SPR
T5 construct: extracellular domain; Bought reagent

[5] = molecular target: T1, DLL4 (DLL4 ECD/His tag, R&D Systems …); experiment: Direct bind ELISA on DLL4; DLL4 domain C-term., HC long, LC short

B1: DVD508 (VEGF/DLL4 DVD-Ig) (bispecific antibody, human IgG1)
VH: EVQLVESGGGLVQPGGSLRLSCAASGFTISDYWIHWVRQAPGKGLEWVAGITPAGGYTYYADSVKGRFTISADTSKNTAYLQMNSLRAEDTAVYYCARFVFFLPYAMDYWGQGTLVTVSSASTKGPEVQLQQSGPELVKPGASVKMSCKASGYTFTSYVINWVKQKPGQGLEWIGLINPYNDGTKYNEKFKVKATLTSDKSSSTAYMELSSLTSEDSAVYYCASYYYGSRYYFDYWGQGTTLTVSS
VL: DIQMTQSPSSLSASVGDRVTITCRASQDVSTAVAWYQQKPGKAPKLLIYSASFLYSGVPSRFSGSGSGTDFTLTISSLQPEDFATYYCQQSYTTPPTFGQGTKVEIKRTVAAPSVFIFPPDIQMTQSSSYLSVSLGGRVTITCKASDHINNWLAWYQQKPGNAPRLLISGATSLETGVPSRFSGSGSGKDYTLSITSLQTEDVATYYCQQYWSIPLTFGAGTKLELKR
notes: HC linker short, LC linker long; also called DVD508H; DVD508L
- EC50 [1]: 610 pM

- Inhibition Of EGFR Phosphorylation (% Inhibition At 60 nM Ab/DVD) (ErbB3 on A431 cells [2]): 0%
- Inhibition Of ErbB3 Phosphorylation (% Inhibition At 60 nM Ab/DVD) (ErbB3 on A431 cells [2]): 72%
- Inhibition Of A431 Proliferation (% Inhibition At 2.4 nM Ab/DVD) (ErbB3 on A431 cells [3]): 14%
- Inhibition Of A431 Proliferation (% Inhibition At 21.6 nM Ab/DVD) (ErbB3 on A431 cells [3]): 27%
B2: AB062 (anti-ErbB3 (seq. 1) parent antibody) (antibody, human IgG1, kappa, V domains shown)
VH: QVQLQQWGAGLLKPSETLSLTCAVYGGSFSGYYWSWIRQPPGKGLEWIGEINHSGSTNYNPSLKSRVTISVETSKNQFSLKLSSVTAADTAVYYCARDKWTWYFDLWGRGTLVTVSS
VL: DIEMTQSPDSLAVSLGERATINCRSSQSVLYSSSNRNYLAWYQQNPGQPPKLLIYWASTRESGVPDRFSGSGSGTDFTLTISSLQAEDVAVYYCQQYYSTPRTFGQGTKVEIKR

B3: DVD531 (DLL4/VEGF DVD-Ig) (bispecific antibody, human IgG1)
VH: EVQLQQSGPELEKPGASVKISCKASGYSFTGYNMNWVKQSNGKSLEWIGNIDPYFGGTNYNQKFKGKATLTVDKSSSTAYMQLKSLTSEDSAVYYCARNYDYDGGCFDYWGQGTTLTVSSASTKGPEVQLVESGGGLVQPGGSLRLSCAASGFTISDYWIHWVRQAPGKGLEWVAGITPAGGYTYYADSVKGRFTISADTSKNTAYLQMNSLRAEDTAVYYCARFVFFLPYAMDYWGQGTLVTVSS
VL: QAVVTQESALTTSPGETVTLTCRSSTGAVTTSNYANWVQEKPDHLFTGLIGGTNNRAPGVPARFSGSLIGDKAALTITGAQTEDEAIYFCALWYSNHWVFGGGTKLTVLGQPKAAPSVTLFPPDIQMTQSPSSLSASVGDRVTITCRASQDVSTAVAWYQQKPGKAPKLLIYSASFLYSGVPSRFSGSGSGTDFTLTISSLQPEDFATYYCQQSYTTPPTFGQGTKVEIKR
notes: HC linker short, LC linker long; also called DVD531H; DVD531L
- EC50 [4]: 570 pM

B4: DVD462 (VEGF/DLL4 DVD-Ig) (bispecific antibody, human IgG1)
VH: EVQLVESGGGLVQPGGSLRLSCAASGFTISDYWIHWVRQAPGKGLEWVAGITPAGGYTYYADSVKGRFTISADTSKNTAYLQMNSLRAEDTAVYYCARFVFFLPYAMDYWGQGTLVTVSSASTKGPQVQLVQSGAEVKKPGASVKISCKASGYSFTAYYIHWVKQAPGQGLEWIGYISSYNGATNYNQKFKGRVTFTTDTSTSTAYMELRSLRSDDTAVYYCARDYDYDVGMDYWGQGTLVTVSS
VL: DIQMTQSPSSLSASVGDRVTITCRASQDVSTAVAWYQQKPGKAPKLLIYSASFLYSGVPSRFSGSGSGTDFTLTISSLQPEDFATYYCQQSYTTPPTFGQGTKVEIKRTVAAPSVFIFPPDIVMTQSPDSLAVSLGERATISCRASESVDNYGISFMKWFQQKPGQPPKLLIYAASNQGSGVPDRFSGSGSGTDFTLTISSLQAEDVAVYYCQQSKEVPWTFGGGTKVEIKR
notes: HC linker short, LC linker long; also called DVD462H; DVD462L
- EC50 [1]: 7990 pM

B5: DVD484 (VEGF/DLL4 DVD-Ig) (bispecific antibody, human IgG1)
VH: EVQLVESGGGLVQPGGSLRLSCAASGFTISDYWIHWVRQAPGKGLEWVAGITPAGGYTYYADSVKGRFTISADTSKNTAYLQMNSLRAEDTAVYYCARFVFFLPYAMDYWGQGTLVTVSSASTKGPEVQLVESGGGLVQPGGSLRLSCAASGFTFTDNWISWVRQAPGKGLEWVGYISPNSGFTYYADSVKGRFTISADTSKNTAYLQMNSLRAEDTAVYYCARDNFGGYFDYWGQGTLVTVSS
VL: DIQMTQSPSSLSASVGDRVTITCRASQDVSTAVAWYQQKPGKAPKLLIYSASFLYSGVPSRFSGSGSGTDFTLTISSLQPEDFATYYCQQSYTTPPTFGQGTKVEIKRTVAAPSVFIFPPDIQMTQSPSSLSASVGDRVTITCRASQDVSTAVAWYQQKPGKAPKLLIYSASFLYSGVPSRFSGSGSGTDFTLTISSLQPEDFATTYYCQQSYTGTVTFGQGTKVEIKR
notes: HC linker short, LC linker long; also called DVD484H; DVD484L
- EC50 [1]: 1750 pM

B6: DVD507 (DLL4/VEGF DVD-Ig) (bispecific antibody, human IgG1)
VH: EVQLQQSGPELVKPGASVKMSCKASGYTFTSYVINWVKQKPGQGLEWIGLINPYNDGTKYNEKFKVKATLTSDKSSSTAYMELSSLTSEDSAVYYCASYYYGSRYYFDYWGQGTTLTVSSASTKGPEVQLVESGGGLVQPGGSLRLSCAASGFTISDYWIHWVRQAPGKGLEWVAGITPAGGYTYYADSVKGRFTISADTSKNTAYLQMNSLRAEDTAVYYCARFVFFLPYAMDYWGQGTLVTVSS
VL: DIQMTQSSSYLSVSLGGRVTITCKASDHINNWLAWYQQKPGNAPRLLISGATSLETGVPSRFSGSGSGKDYTLSITSLQTEDVATYYCQQYWSIPLTFGAGTKLELKRTVAAPSVFIFPPDIQMTQSPSSLSASVGDRVTITCRASQDVSTAVAWYQQKPGKAPKLLIYSASFLYSGVPSRFSGSGSGTDFTLTISSLQPEDFATYYCQQSYTTPPTFGQGTKVEIKR
notes: HC linker short, LC linker long; also called DVD507H; DVD507L
- EC50 [4]: 710 pM

- Kd (IGF-I): 388 pM
- koff (IGF-I): 0.00123 s⁻¹
- kon (IGF-I): 3.17e+06 M⁻¹ s⁻¹
- Kd (IGF-2): 0.423 pM and < 0.299 pM
- koff (IGF-2): 2.74e-06 s⁻¹ and < 1e-06 s⁻¹
- kon (IGF-2): 6.47e+06 M⁻¹ s⁻¹ and 3.35e+06 M⁻¹ s⁻¹
B7: AB010 (antibody, human IgG1, lambda, V domains shown)
VH: QVQLVQSGAEVKKPGASVKVSCKASGYTFTSYDINWVRQATGQGLEWMGWMNPNSGNTGYAQKFQGRVTMTRNTSISTAYMELSSLRSEDTAVYYCARDPYYYYYGMDVWGQGTTVTVSS
VL: QSVLTQPPSVSAAPGQKVTISCSGSSSNIENNHVSWYQQLPGTAPKLLIYDNNKRPSGIPDRFSGSKSGTSATLGITGLQTGDEADYYCETWDTSLSAGRVFGGGTKLTVLG
notes: also called anti-IGF1,2 parent antibody

B8: DVD532 (VEGF/DLL4 DVD-Ig) (bispecific antibody, human IgG1)
VH: EVQLVESGGGLVQPGGSLRLSCAASGFTISDYWIHWVRQAPGKGLEWVAGITPAGGYTYYADSVKGRFTISADTSKNTAYLQMNSLRAEDTAVYYCARFVFFLPYAMDYWGQGTLVTVSSASTKGPEVQLQQSGPELEKPGASVKISCKASGYSFTGYNMNWVKQSNGKSLEWIGNIDPYFGGTNYNQKFKGKATLTVDKSSSTAYMQLKSLTSEDSAVYYCARNYDYDGGCFDYWGQGTTLTVSS
VL: DIQMTQSPSSLSASVGDRVTITCRASQDVSTAVAWYQQKPGKAPKLLIYSASFLYSGVPSRFSGSGSGTDFTLTISSLQPEDFATYYCQQSYTTPPTFGQGTKVEIKRTVAAPSVFIFPPQAVVTQESALTTSPGETVTLTCRSSTGAVTTSNYANWVQEKPDHLFTGLIGGTNNRAPGVPARFSGSLIGDKAALTITGAQTEDEAIYFCALWYSNHWVFGGGTKLTVLG
notes: HC linker short, LC linker long; also called DVD532H; DVD532L
- EC50 [1]: 1430 pM

B9: DVD461 (DLL4/VEGF DVD-Ig) (bispecific antibody, human IgG1)
VH: QVQLVQSGAEVKKPGASVKISCKASGYSFTAYYIHWVKQAPGQGLEWIGYISSYNGATNYNQKFKGRVTFTTDTSTSTAYMELRSLRSDDTAVYYCARDYDYDVGMDYWGQGTLVTVSSASTKGPEVQLVESGGGLVQPGGSLRLSCAASGFTISDYWIHWVRQAPGKGLEWVAGITPAGGYTYYADSVKGRFTISADTSKNTAYLQMNSLRAEDTAVYYCARFVFFLPYAMDYWGQGTLVTVSS
VL: DIVMTQSPDSLAVSLGERATISCRASESVDNYGISFMKWFQQKPGQPPKLLIYAASNQGSGVPDRFSGSGSGTDFTLTISSLQAEDVAVYYCQQSKEVPWTFGGGTKVEIKRTVAAPSVFIFPPDIQMTQSPSSLSASVGDRVTITCRASQDVSTAVAWYQQKPGKAPKLLIYSASFLYSGVPSRFSGSGSGTDFTLTISSLQPEDFATYYCQQSYTTPPTFGQGTKVEIKR
notes: HC linker short, LC linker long; also called DVD461H; DVD461L
- EC50 [4]: 520 pM

- Kd (IGF1R ECD): 848 pM
- koff (IGF1R ECD): 6.21e-05 s⁻¹
- kon (IGF1R ECD): 73200 M⁻¹ s⁻¹
B10: AB011 (antibody, human IgG1, kappa, V domains shown)
VH: EVQLLESGGGLVQPGGSLRLSCTASGFTFSSYAMNWVRQAPGKGLEWVSAISGSGGTTFYADSVKGRFTISRDNSRTTLYLQMNSLRAEDTAVYYCAKDLGWSDSYYYYYGMDVWGQGTTVTVSS
VL: DIQMTQFPSSLSASVGDRVTITCRASQGIRNDLGWYQQKPGKAPKRLIYAASRLHRGVPSRFSGSGSGTEFTLTISSLQPEDFATYYCLQHNSYPCSFGQGTKLEIKR

- EC50 [5]: 3170 pM
B11: DVD502 (VEGF/DLL4 DVD-Ig) (bispecific antibody, human IgG1)
VH: EVQLVESGGGLVQPGGSLRLSCAASGFTISDYWIHWVRQAPGKGLEWVAGITPAGGYTYYADSVKGRFTISADTSKNTAYLQMNSLRAEDTAVYYCARFVFFLPYAMDYWGQGTLVTVSSASTKGPSVFPLAPEVQLQQSGPELVKPGASVKMSCKASGYTFTSYVINWVKQKPGQGLEWIGLINPYNDGTKYNEKFKVKATLTSDKSSSTAYMELSSLTSEDSAVYYCASYYYGSRYYFDYWGQGTTLTVSS
VL: DIQMTQSPSSLSASVGDRVTITCRASQDVSTAVAWYQQKPGKAPKLLIYSASFLYSGVPSRFSGSGSGTDFTLTISSLQPEDFATYYCQQSYTTPPTFGQGTKVEIKRTVAAPDIQMTQSSSYLSVSLGGRVTITCKASDHINNWLAWYQQKPGNAPRLLISGATSLETGVPSRFSGSGSGKDYTLSITSLQTEDVATYYCQQYWSIPLTFGAGTKLELKR
notes: HC linker long, LC linker short; also called DVD502H; DVD502L

B12: DVD483 (DLL4/VEGF DVD-Ig) (bispecific antibody, human IgG1)
VH: EVQLVESGGGLVQPGGSLRLSCAASGFTFTDNWISWVRQAPGKGLEWVGYISPNSGFTYYADSVKGRFTISADTSKNTAYLQMNSLRAEDTAVYYCARDNFGGYFDYWGQGTLVTVSSASTKGPEVQLVESGGGLVQPGGSLRLSCAASGFTISDYWIHWVRQAPGKGLEWVAGITPAGGYTYYADSVKGRFTISADTSKNTAYLQMNSLRAEDTAVYYCARFVFFLPYAMDYWGQGTLVTVSS
VL: DIQMTQSPSSLSASVGDRVTITCRASQDVSTAVAWYQQKPGKAPKLLIYSASFLYSGVPSRFSGSGSGTDFTLTISSLQPEDFATTYYCQQSYTGTVTFGQGTKVEIKRTVAAPSVFIFPPDIQMTQSPSSLSASVGDRVTITCRASQDVSTAVAWYQQKPGKAPKLLIYSASFLYSGVPSRFSGSGSGTDFTLTISSLQPEDFATYYCQQSYTTPPTFGQGTKVEIKR
notes: HC linker short, LC linker long; also called DVD483H; DVD483L
- EC50 [4]: 630 pM
